# Test results: patent publication US20090111745A1 (DOMANTIS, published 2009)
# Where a chain is given by its changes, count along the chain named.
# B1: DOM7r-3 (other)
# VL: DIQMTQSPSSLSASVGDRVTITCRASQYIGRYLRWYQQKPGKAPKLLIYDSSVLQSGVPSRFSGSGSGTDFTLTISSLQPEDFATYYCQQRYMQPFTFGQGTKVEIKR
# B2: DOM7r-16 (other)
# VL: B1 VL with Y28K, G30Y, R31K, Y32N, D50N, V53I, M93L, Q94S, F96Y
# B3: DOM7r-31 (other)
# VH: EVQLLESGGGLVQPGGSLRLSCTASGFTFRHYRMGWVRQAPGKGLEWVSWIRPDGTFTYYADSVKGRFTISRDNSKNTLYLQMNSLRAEDTAVYYCAKSYMGDRFDYWGQGTLVTVSS
# B4: DOM7r-27 (other)
# VH: EVQLLESGGGLVQPGGSLRLSCAASGFTFWPYTMSWVRQAPGKGLEWVSTISPFGSTTYYADSVKGRFTISRDNSKNTLYLQMNSLRAEDTAVYYCAKSDVLKTGLDGFDYWGQGTLVTVSS
# B5: DOM7h-23 (other)
# VH: EVQLLESGGGLVQPGGSLRLSCAASGFTFYDYNMSWVRQAPGKGLEWVSTITHTGGVTYYADSVKGRFTISRDNSKNTLYLQMNSLRAEDTAVYYCAKQNPSYQFDYWGQGTLVTVSS
# B6: DOM7h-26 (other)
# VH: EVQLLESGGGLVQPGGSLRLSCTASGFTFDEYNMSWVRQAPGKGLEWVSTILPHGDRTYYADSVKGRFTISRDNSKNTLYLQMNSLRAEDTAVYYCAKQDPLYRFDYWGQGTLVTVSS
# B7: DOM7h-22 (other)
# VH: EVQLLESGGGLVQPGGSLRLSCAASGFTFSKYWMSWVRQAPGKGLEWVSSIDFMGPHTYYADSVKGRFTISRDNSKNTLYLQMNSLRAEDTAVYYCAKGRTSMLPMKGKFDYWGQGTLVTVSS
# B8: DOM7r-13 (other)
# VL: B1 VL with Y28H, G30H, Y32E, D50Q, S51A, V53R, R91K, M93L, Q94P, F96Y
# B9: DOM7r-8 (other)
# VL: DIQMTQSPSSLSASVGDRVTITCRASQWIHRQLKWYQQKPGKAPKLLIYYASILQSGVPSRFSGSGSGTDFTLTISSLQPEDFATYYCQQTFSKPSTFGQGTKVEIKR
# B10: DOM7h-2 (other)
# VL: DIQMTQSPSSLSASVGDRVTITCRASQKIATYLNWYQQKPGKAPKLLIYRSSSLQSAVPSRFSGSGSGTVFTLTISSLQPEDFATYYCQQTYAVPPTFGQGTKVEIKR
# B11: DOM7r-14 (other)
# VL: B1 VL with Y28H, G30H, Y32E, D50Q, S51A, V53R, M93R, Q94V, F96Y
# B12: DOM7m-26 (other)
# VL: DIQMTQSPSSLSASVGDRVTITCRASQSIYYHLKWYQQKPGKAPKLLIYKASTLQSGVPSRFSGSGSGTDFTLTISSLQPEDFATYYCQQVRKVPRTFGQGTKVEIKR
# notes: also called MSA 26
# B13: DOM7m-16 (other)
# VL: B12 VL with Y30I, Y31K, K50G, T53R, V91G, R92A, K93R, V94W, R96Q
# notes: also called MSA16
# B14: DOM7r-15 (other)
# VL: DIQMTQSPSSLSASVGDRVTITCRASQSIGRRLKWYQQKPGAAPRLLIYRTSWLQSGVPSRFSGSGSGTDFTLTISSLQPEDFATYYCQQTSQWPHTFGQGTKVEIKR
# B15: DOM7r-19 (other)
# VL: B9 VL with H30Y, Q32H, K34R, Y50D, I53R, S60T, F92H, S93N, K94P, S96K
# B16: DOM7r-18 (other)
# VL: DIQMTQSPSSLSASVGDRVTITCRASQWIYKSLGWYQQKPGKAPKLLIYQSSLLQSGVPSRFSGSGSGTDFTLTISSLQPEDFATYYCQQYHQMPRTFGQGTKVEIKR
# B17: DOM7r-17 (other)
# VL: DIQMTQSPSSLSASVGDRVTITCRASQKIYNNLRWYQQKPGKAPKLLIYNTSILQSGVPSRFSGSGSGTDFTLTISSLQPEDFATYYCQQRWRAPYTFGQGTKVEIKR
# B18: DOM7h-4 (other)
# VL: DIQMTQSPSSLSASVGDRVTITCRASQEIYSWLAWYQQRPGKAPKLLIYNASHLQSGVPSRFSGSGSGTDFTLTISSLQPEDFATYYCQQVIGDPVTFGQGTKVEIKR
# B19: DOM7h-6 (other)
# VL: B10 VL with K28S, A30S, T31S, K45T, S51L, S53V, A57G, V70D, A93N
# B20: DOM7h-3 (other)
# VL: DIQMTQSPSSLSASVGDRVTITCRASQWIDTGLAWYQQKPGKAPRLLIYNVSRLQSGVPSRFSGSGSGTDFTLTISSLQPEDFATYYCQQYWGSPTTFGQGTKVEIKR
# B21: DOM7r-7 (other)
# VL: B1 VL with M93S, Q94S, F96Y
# B22: DOM7r-4 (other)
# VL: B1 VL with Y28W, D50N, S51G, V53Q, M93L, F96Y
# B23: DOM7r-5 (other)
# VL: B1 VL with G30S, Y32Q, K45R, D50G, S51A, V58I, M93I, Q94T, F96Y, I106V
# B24: DOM7h-25 (other)
# VH: EVQLLESGGGLVQPGGSLRLSCAASGFTFWKYNMAWVRQAPGKGLEWVSTILGEGNNTYYADSVKGRFTISRDNSKNTLYLQMNSLRAEDTAVYYCAKTMDYKFDYWGQGTLVTVSS
# B25: DOM7h-24 (other)
# VH: B6 VH with T23A, D30H, E31R, N33S, H54G, R57V, D100T, L102D, R104M
# B26: DOM7h-27 (other)
# VH: EVQLLESGGGLVQPGGSLRLSCAASGFTFSDYRMSWVRQAPGKGLEWVSTIISNGKFTYYADSVKGRFTISRDNSKNTLYLQMNSLRAEDTAVYYCAKQDWMYMFDYWGQGTLVTVSS
# B27: DOM7h-21 (other)
# VH: EVQLLESGGGLVQPGGSLRLSCAASGFTFDLYDMSWVRQAPGKGLEWVSSIVNSGVRTYYADSVKGRFTISRDNSKNTLYLQMNSLRAEDTAVYYCAKLNQSYHWDFDYWGQGTLVTVSS
# Target: T1, rat serum albumin (rat, UniProt P02770 25-608)
# T1 construct: also called RSA
# Test: affinity (KD) for rat serum albumin; method not stated in the table (BIACORE SPR in Example 1)
# Protocol: (§1) dAbs that bound serum albumin on a BIACORE chip (Biacore AB) were then further analysed to obtain information on affinity. The analysis was performed using a CM5 chip (carboxymethylated dextran matrix) that was coated with serum albumin. Flow cell 1 was an uncoated, blocked negative control, flow cell 2 was coated with HSA, flow cell 3 was coated with RSA and flow cell 4 was coated with MSA. The serum albumins were immobilised in acetate buffer pH 5.5 using the BIACORE coating wizard which was programmed to aim for 500 resonance units (RUs) of coated material. Each dAb of interest was expressed in the periplasm of E. coli on a 200 mL-500 mL scale and purified from the supernatant using batch absorption to protein A-streamline affinity resin (Amersham, UK) for the VH_{^S} and to protein L-agarose affinity resin (Affitech, Norway) for the Vκs followed by elution with glycine at pH 2.2 and buffer exchange to PBS. A range of concentrations of dAb were prepared (in the range 5 nM to 5 μM) by dilution into BIACORE HBS-EP buffer and flowed across the BIACORE chip.
row,Binder,Kd
1,B1,12 nM
2,B2,1000 nM
3,B3,5000 nM
4,B4,250 nM

# Target: T1, rat serum albumin
# Test: table of affinities (KD); BIACORE on serum albumin-coated chip according to Example 1;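 note: surface plasmon resonance with dAbs flowed over a chip carrying human, rat or mouse serum albumin, blocked uncoated flow cell as reference, KD from on- and off-rate curve fits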
# Protocol: as §1
Binder,binding result,Kd
B5,no binding,–
B6,no binding,–
B7,no binding,–
B8,–,80 nM
B9,–,20 nM
B10,–,> 5000 nM
B11,–,50 nM

# Target: T2, human serum albumin (human, UniProt P02768 25-609)
# T2 construct: also called HSA; HAS
# Test: as above
# Protocol: as §1
Binder,Kd,binding result
B5,900 nM,–
B6,300 nM,–
B7,60 nM,–
B8,–,no binding
B9,–,no binding
B1,–,no binding
B2,–,no binding
B10,70 nM,–
B11,–,no binding
B12,> 5000 nM,–
B13,> 5000 nM,–
B4,–,no binding

# Target: T3, mouse serum albumin (mouse, UniProt P07724 25-608)
# T3 construct: also called MSA
# Test: as above
# Protocol: as §1
Binder,binding result,Kd
B5,no binding,–
B6,no binding,–
B7,no binding,–
B9,–,40 nM
B1,–,> 5000 nM
B2,–,1000 nM
B10,–,> 5000 nM
B12,–,60 nM
B13,–,50 nM
B3,–,1000 nM
B4,–,250 nM

# Target: T2, human serum albumin
# Test: table of affinities (KD); BIACORE on serum albumin-coated chip according to Example 1; '+' = detectable binding but weak (estimated KD > 5 µM);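 for result: surface plasmon resonance with dAbs flowed over a chip carrying human, rat or mouse serum albumin, blocked uncoated flow cell as reference, KD from on- and off-rate curve fits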
# Protocol: as §1
row,Binder,Kd
1,B3,~10000 nM

# Target: T1, rat serum albumin
# Test: phage display selection on albumin (figure legend)
row,Binder,binding result
1,B14,binds
2,B15,binds
3,B16,binds
4,B17,binds

# Target: T2, human serum albumin
# Test: phage display selection on albumin (figure legend)
row,Binder,binding result
1,B18,binds
2,B19,binds
3,B20,binds

# Target: T2, human serum albumin
# Test: BIACORE SPR, albumin on a CM5 chip, dAb in solution
# Protocol: as §1
row,Binder,Kd
1,B5,500 to 5000 nM
2,B6,100 to 500 nM
3,B10,10 to 100 nM

# Target: T1, rat serum albumin
# Test: BIACORE SPR screen, column 'Biacore binding'
# Description: (§2) If a significant proportion of the clones in one of the selections were positive in the phage ELISA, then DNA from this selection was cloned into an expression vector for production of soluble dAb, and individual colonies were picked. […] Clones were then sequenced and unique dAb sequences identified.
row,Binder,binding result
1,B21,binds
2,B22,binds
3,B23,binds

# Target: T2, human serum albumin
# Test: BIACORE SPR screen, column 'Biacore binding'
# Description: as §2
row,Binder,binding result
1,B24,binds
2,B25,binds
3,B26,binds
4,B27,binds

# Target: T3, mouse serum albumin
# Test: BIACORE SPR screen, column 'Biacore binding'
# Description: as §2
row,Binder,binding result
1,B21,binds
2,B22,binds
